The results in this text go back to patent publication US20240167070A1 (NANYANG TECHNOLOGICAL UNIVERSITY, published 2024).

Starred links: 1 amine or outer side, 2 acyl side, 3 side chain; linkers in the order of their positions; H or OH if unused. Non-standard residues stand in square brackets, D forms with d. Primed or numbered codes have the meaning given here. No end group written: not given here. Asn(OH)″ = N^γ-hydroxy-L-asparagine (L-aspartic acid β-hydroxamate), O=C(C[C@H](N[*:1])C(=O)[*:2])NO; Asn(OH) = N-gamma-hydroxy-L-asparagine, O=C(C[C@H](N[*:1])C(=O)[*:2])NO[*:3] A value given as a limit tells only on which side of the number the result lay.

One may read the IC50 as the concentration that gives 50% inhibition.

The target in assay [1] is T1, matrix metalloprotease 2 (MMP2) (UniProt P08253 110-660, limits assumed).
T1 construct: also called matrix metalloproteinases 2
T1 sequence (looked up): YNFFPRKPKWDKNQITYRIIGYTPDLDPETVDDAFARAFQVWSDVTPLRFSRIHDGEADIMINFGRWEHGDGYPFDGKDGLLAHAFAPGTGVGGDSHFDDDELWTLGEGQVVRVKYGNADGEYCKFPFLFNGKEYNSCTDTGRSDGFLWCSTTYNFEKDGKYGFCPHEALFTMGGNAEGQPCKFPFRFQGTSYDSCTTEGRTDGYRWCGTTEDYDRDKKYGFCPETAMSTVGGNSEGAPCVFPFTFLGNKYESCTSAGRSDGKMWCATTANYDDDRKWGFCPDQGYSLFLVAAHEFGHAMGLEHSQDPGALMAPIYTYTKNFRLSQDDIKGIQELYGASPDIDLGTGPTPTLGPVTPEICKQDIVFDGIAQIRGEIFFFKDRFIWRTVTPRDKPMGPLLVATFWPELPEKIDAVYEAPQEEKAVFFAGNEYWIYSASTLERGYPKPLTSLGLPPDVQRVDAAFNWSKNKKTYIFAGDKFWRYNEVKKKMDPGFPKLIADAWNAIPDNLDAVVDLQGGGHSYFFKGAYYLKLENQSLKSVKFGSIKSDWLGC
Kind of assay: MMP2 FRET-substrate inhibition assay; Ki = IC50/(1+[S]0/Km). The method, then: (§1) The inhibitory activity of the peptides was determined by measuring the MMPs' protease activity towards a FRET substrate. […] MMP2 was pre-incubated with the peptide inhibitors for 10 min before adding the substrate.

Assay [2] has as its target MMP9 (UniProt P14780 107-707, limits assumed). Kind of assay: MMP9 FRET-substrate inhibition assay; Ki = IC50/(1+[S]0/Km). The method, then: as §1
In assay [3] the target is T1, matrix metalloprotease 2 (MMP2). Kind of assay: cell-based or functional assay.
For assay [4] the target is unchanged. Kind of assay: MMP2 and MMP9 FRET-substrate inhibition assays. As for the experimental part: as §1
For assay [5] the target is unchanged. Kind of assay: MMP2 FRET-substrate inhibition assay. The method, then:
as §1

Assay [6] addresses trypsin. Put plainly: cell-based or functional assay.
Assay [7] deals with trypsin. Put plainly: trypsin FRET-substrate inhibition assay; Ki = IC50/(1+[S]0/Km).
trypsin, sequence (P00760 24-246): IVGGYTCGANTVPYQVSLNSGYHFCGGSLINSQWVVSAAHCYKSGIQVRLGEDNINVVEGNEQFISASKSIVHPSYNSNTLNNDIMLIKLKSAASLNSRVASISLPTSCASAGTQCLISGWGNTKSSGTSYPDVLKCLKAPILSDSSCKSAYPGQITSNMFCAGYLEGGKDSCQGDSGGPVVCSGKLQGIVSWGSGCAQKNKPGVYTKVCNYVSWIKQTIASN

MMP9, sequence (P14780 107-707 limits assumed): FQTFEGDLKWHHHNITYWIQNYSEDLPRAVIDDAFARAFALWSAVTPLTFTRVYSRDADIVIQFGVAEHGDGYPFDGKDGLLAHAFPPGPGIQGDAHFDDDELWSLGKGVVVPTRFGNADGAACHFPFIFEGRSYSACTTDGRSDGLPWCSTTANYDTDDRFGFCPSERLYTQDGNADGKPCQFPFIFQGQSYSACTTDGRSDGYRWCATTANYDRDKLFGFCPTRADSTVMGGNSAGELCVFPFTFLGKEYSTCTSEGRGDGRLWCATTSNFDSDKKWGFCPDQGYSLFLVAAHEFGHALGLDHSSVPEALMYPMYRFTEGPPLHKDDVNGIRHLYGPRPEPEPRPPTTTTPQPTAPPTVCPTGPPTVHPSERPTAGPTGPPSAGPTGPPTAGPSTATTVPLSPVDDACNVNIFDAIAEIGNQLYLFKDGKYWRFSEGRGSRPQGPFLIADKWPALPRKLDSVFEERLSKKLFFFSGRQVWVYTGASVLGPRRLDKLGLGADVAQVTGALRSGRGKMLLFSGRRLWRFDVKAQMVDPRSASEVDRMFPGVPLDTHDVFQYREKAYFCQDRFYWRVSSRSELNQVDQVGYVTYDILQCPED

B1: Asp-RTD-1 18, cyclo[SYCDCLCRRGVCRCICTI] (peptide)
peptide: cyclo(SYCDCLCRRGVCRCICTI)
modifications: disulfide (positions not given here); also: oxidatively folded, disulfide pairing not given here
notes: Obtained by NaIO4 oxidation of Asn(OH)-RTD-1 17; also called peptide 18
For B1, the Ki was determined as 6.5 nM in assay [1] and 3290 nM in assay [2].

B2: Asn-RTD-1 19, cyclo[SYCNCLCRRGVCRCICTI] (peptide)
peptide: cyclo(SYCNCLCRRGVCRCICTI)
modifications: disulfide (positions not given here); also: oxidatively folded disulfides, pairing not given here
notes: also called peptide 19
For the molecule B2, the Ki in assay [1] stood at 36.5 nM; in assay [2], 5590 nM.

B3: rhesus theta defensin-1 (RTD-1) 16, cyclo[GFCRCLCRRGVCRCICTR] (peptide)
peptide: cyclo(GFCRCLCRRGVCRCICTR)
modifications: disulfide (positions not given here); not fully specified; printed as cyclo[GFCRCLCRRGVCRCICTR]
notes: also called peptide 16; native RTD-1
Turning to B3, the Ki in assay [1] was determined as 60 nM.

B4: cyclo[…(OH)ALMPSGQYM] (peptide)
peptide: cyclo(ATRSGISYGQ[Asn(OH)″]ALMPSGQYM)
SMILES: CC[C@H](C)[C@@H]1NC(=O)CNC(=O)[C@H](CO)NC(=O)[C@H](CCCNC(=N)N)NC(=O)[C@H]([C@@H](C)O)NC(=O)[C@H](C)NC(=O)[C@H](CCSC)NC(=O)[C@H](Cc2ccc(O)cc2)NC(=O)[C@H](CCC(N)=O)NC(=O)CNC(=O)[C@H](CO)NC(=O)[C@@H]2CCCN2C(=O)[C@H](CCSC)NC(=O)[C@H](CC(C)C)NC(=O)[C@H](C)NC(=O)[C@H](CC(=O)NO)NC(=O)[C@H](CCC(N)=O)NC(=O)CNC(=O)[C@H](Cc2ccc(O)cc2)NC(=O)[C@H](CO)NC1=O
notes: also called peptide 15
With B4, in assay [1], the Ki amounted to 231 nM. Moreover, 354 nM corresponded to half-maximal inhibition in assay [3] (IC50).

B5: cyclo[SISYGQN(OH)ALMPG] (peptide)
peptide: cyclo(SISYGQ[Asn(OH)″]ALMPG)
SMILES: CC[C@H](C)[C@@H]1NC(=O)[C@H](CO)NC(=O)CNC(=O)[C@@H]2CCCN2C(=O)[C@H](CCSC)NC(=O)[C@H](CC(C)C)NC(=O)[C@H](C)NC(=O)[C@H](CC(=O)NO)NC(=O)[C@H](CCC(N)=O)NC(=O)CNC(=O)[C@H](Cc2ccc(O)cc2)NC(=O)[C@H](CO)NC1=O
With B5, the concentration for half-maximal inhibition (IC50) in assay [3] was over 100000 nM.

B6: Asn(OH)-RTD1 17, cyclo[SYCN(OH)CLCRRGVCRCICTI] (peptide)
peptide: cyclo(SYC[Asn(OH)]CLCRRGVCRCICTI)
modifications: disulfide (positions not given here); not fully specified (bridges); printed as cyclo[SYCN(OH)CLCRRGVCRCICTI]; also: oxidatively folded disulfides, pairing not given here
notes: also called peptide 17; grafted peptide 17
B6 registered a Ki in assay [1] of 2.8 nM. Moreover, in assay [4], the “fold more potent towards MMP2 than MMP9” value is about 1000 fold. Moreover, in assay [5], the “fold better binding affinity against Asn-RTD-1 19” value stood at 13 fold, the “fold better binding affinity against Asp-RTD-1 18” value came to 2.3 fold and the “fold improvement of Ki against the linear Asn(OH)-APP-IP peptide 9” value came out at 8.2 fold. The molecule further registered a Ki in assay [2] of 2680 nM.

B7: cyclo[…(OH)ALMPSGYM] (peptide)
peptide: cyclo(ATSGISYGQ[Asn(OH)]ALMPSGYM)
SMILES: CC[C@H](C)[C@@H]1NC(=O)CNC(=O)[C@H](CO)NC(=O)[C@H]([C@@H](C)O)NC(=O)[C@H](C)NC(=O)[C@H](CCSC)NC(=O)[C@H](Cc2ccc(O)cc2)NC(=O)CNC(=O)[C@H](CO)NC(=O)[C@@H]2CCCN2C(=O)[C@H](CCSC)NC(=O)[C@H](CC(C)C)NC(=O)[C@H](C)NC(=O)[C@H](CC(=O)NO)NC(=O)[C@H](CCC(N)=O)NC(=O)CNC(=O)[C@H](Cc2ccc(O)cc2)NC(=O)[C@H](CO)NC1=O
notes: also called peptide 14
Take B7: the Ki in assay [1] was 2180 nM. Moreover, the concentration for half-maximal inhibition (IC50) in assay [3] came to 3340 nM.

B8: cyclic MCoTI-II, [GGVCPKILKKCRRDSDCPGACICRGNGYCGSGSD] (peptide)
peptide: cyclo(GGVCPKILKKCRRDSDCPGACICRGNGYCGSGSD)
modifications: not fully specified (bridges); also: three disulfide bonds, pairing not given here
notes: also called MCoTI-II 20; cyclo-MCoTI-II
Consider B8, for which, in assay [6], the “IC50” value stood at 2.01 nM. This molecule registered a Ki in assay [7] of 0.18 nM.

B9: cyclo[…(OH)ALMPSGA] (peptide)
peptide: cyclo(GSGISYGQ[Asn(OH)]ALMPSGA)
SMILES: CC[C@H](C)[C@@H]1NC(=O)CNC(=O)[C@H](CO)NC(=O)CNC(=O)[C@H](C)NC(=O)CNC(=O)[C@H](CO)NC(=O)[C@@H]2CCCN2C(=O)[C@H](CCSC)NC(=O)[C@H](CC(C)C)NC(=O)[C@H](C)NC(=O)[C@H](CC(=O)NO)NC(=O)[C@H](CCC(N)=O)NC(=O)CNC(=O)[C@H](Cc2ccc(O)cc2)NC(=O)[C@H](CO)NC1=O
notes: also called peptide 13
Molecule B9 returned a Ki in assay [1] of 12000 nM. Moreover, in assay [3], inhibition was half-maximal at 18400 nM (IC50).

B10: Asn(OH)-APP-IP peptide 9, ISYGNN(OH)ALMP (peptide)
peptide: ISYGN[Asn(OH)″]ALMP-NH2
modifications: N-terminus assumed
SMILES: CC[C@H](C)[C@H](N)C(=O)N[C@@H](CO)C(=O)N[C@@H](Cc1ccc(O)cc1)C(=O)NCC(=O)N[C@@H](CC(N)=O)C(=O)N[C@@H](CC(=O)NO)C(=O)N[C@@H](C)C(=O)N[C@@H](CC(C)C)C(=O)N[C@@H](CCSC)C(=O)N1CCC[C@H]1C(N)=O
notes: Linear 10-mer; also called linear Asn(OH)-APP-IP peptide 9
For the molecule B10, the Ki in assay [1] came out at 23 nM. Also, the “fold improvement of inhibitory activity against APP-IP 8” value in assay [5] came to 2.6 fold. For the same molecule, the “IC50” value in assay [3] was found to be 35 nM.

B11: cyclo[ISYGQN(OH)ALMP] (peptide)
peptide: cyclo(ISYGQ[Asn(OH)″]ALMP)
SMILES: CC[C@H](C)[C@@H]1NC(=O)[C@@H]2CCCN2C(=O)[C@H](CCSC)NC(=O)[C@H](CC(C)C)NC(=O)[C@H](C)NC(=O)[C@H](CC(=O)NO)NC(=O)[C@H](CCC(N)=O)NC(=O)CNC(=O)[C@H](Cc2ccc(O)cc2)NC(=O)[C@H](CO)NC1=O
notes: also called peptide 10
Molecule B11 yielded a Ki in assay [1] of 21300 nM. Besides, in assay [3], the “IC50” value was determined as 32500 nM.

B12: β-amyloid precursor protein-derived inhibitory peptide (APP-IP) 8, ISYGNDALMP (peptide)
peptide: ISYGNDALMP-NH2
notes: Linear 10-mer; also called peptide 8; linear APP-IP 8
In turn, B12 gave a Ki in assay [1] of 60 nM. The concentration for half-maximal inhibition (IC50) in assay [3] was 92 nM.

B13: cyclo[SGISYGQN(OH)ALMPSG] (peptide)
peptide: cyclo(SGISYGQ[Asn(OH)″]ALMPSG)
SMILES: CC[C@H](C)[C@@H]1NC(=O)CNC(=O)[C@H](CO)NC(=O)CNC(=O)[C@H](CO)NC(=O)[C@@H]2CCCN2C(=O)[C@H](CCSC)NC(=O)[C@H](CC(C)C)NC(=O)[C@H](C)NC(=O)[C@H](CC(=O)NO)NC(=O)[C@H](CCC(N)=O)NC(=O)CNC(=O)[C@H](Cc2ccc(O)cc2)NC(=O)[C@H](CO)NC1=O
notes: also called peptide 12
As for B13, in assay [1], the Ki amounted to 6980 nM. The midpoint of inhibition in assay [3], the IC50, lay at 10700 nM.
